# B1: minor coat protein pVI (natural protein, bacteriophage M13, UniProt P69532 1-112, looked up)
# chain: MPVLLGIPLLLRFLGFLLVTLFGYLLTFLKKGFGKIAIAISLFLALIIGLNSILVGYLSDISAQLPSDFVQGVQLILPSNALPCFYVILSVKAAIFIFDVKQKIVSYLDWDK
# notes: 112 amino acids, no post-translational processing reported; residues 1 and 111-112 not built in the model; 5 copies in the particle; source: E. coli TG1 with pUC19-minigenome, infected with helper phage M13KO7; in the mini phage purified from the supernatant (cobalt resin, sucrose density gradient)
# B2: minor coat protein pIX (natural protein, bacteriophage M13, UniProt P69538 1-32, looked up)
# chain: MSVLVYSFASFVLGWCLRSGITYFTRLMETSS
# notes: Minor coat protein pIX of bacteriophage M13 (encoded by helper phage M13KO7); 32 residues, no signal peptide; 5 copies in the particle (layer 2); source: E. coli TG1 with pUC19-minigenome, infected with helper phage M13KO7; in the mini phage purified from the supernatant (cobalt resin, sucrose density gradient)
# B3: minor coat protein pVII (natural protein, bacteriophage M13, UniProt P69535 1-33, looked up)
# chain: MEQVADFDTIYQAMIQISVVLCFALGIIAGGQR
# notes: Minor coat protein pVII of bacteriophage M13 (encoded by helper phage M13KO7); 33 residues, no signal peptide; residues 1-4 not built in the model; 5 copies in the particle (layer 1); source: E. coli TG1 with pUC19-minigenome, infected with helper phage M13KO7; in the mini phage purified from the supernatant (cobalt resin, sucrose density gradient)
# Legend:
# [1] = molecular target: the molecule itself; assay: cryo-EM structure; purified M13 mini phage particle (assembled in E. coli TG1 with helper phage M13KO7), 0.6-0.8 mg/ml; whole particle 3.5 Å with 5-fold symmetry; top, middle and bottom segments refined separately at 3.5, 3.1 and 3.3 Å
# minor coat protein pVII = molecular target: B3; assay: as above; details: both partners purified
Binder,stoichiometry N [1],binding result (minor coat protein pVII)
B1,5,–
B2,–,binds
B3,5,–

# Reference: paper PMC10480500, “Cryo-EM structure of a bacteriophage M13 mini variant” (Nature Communications, 2023)
